Results on four substances are retold here after patent publication US20220010008A1.

“And” between values parts separate entries of the source, which are not always exact repeats. Identical values can stand only once.

The target in experiment [1] is recombinant human IL-5 protein with His tag (human) (UniProt P05113). The experiment is described as follows: cell-based or functional assay.
The target of experiment [2] is recombinant human IL-5 protein (human) (UniProt P05113). Put plainly: cell-based or functional assay.
Experiment [3] has the same target. Put plainly: ELISA, biotin-human IL-5 on streptavidin plate, Ab 0.0002 nM. A general note: In an ELISA, binding on a coated surface is turned into a signal by an enzyme label.
For experiment [4] the target is unchanged. Put plainly: ELISA, biotin-human IL-5 on streptavidin plate, Ab 0.0009 nM.
The target is the same in experiment [5]. The experiment is described as follows: ELISA, biotin-human IL-5 on streptavidin plate, Ab 0.0043 nM.
The target is the same in experiment [6]. The experiment is described as follows: ELISA, biotin-human IL-5 on streptavidin plate, Ab 0.0213 nM.
For experiment [7] the target is unchanged. Put plainly: ELISA, biotin-human IL-5 on streptavidin plate, Ab 0.1067 nM.
Experiment [8] has the same target. The experiment is described as follows: ELISA, biotin-human IL-5 on streptavidin plate, Ab 0.5333 nM.
Experiment [9] shares this target. Put plainly: ELISA, biotin-human IL-5 on streptavidin plate, Ab 2.6667 nM.
For experiment [10] the target is unchanged. The experiment is described as follows: ELISA, biotin-human IL-5 on streptavidin plate, Ab 13.3333 nM.
Experiment [11] has the same target. The experiment is described as follows: FACS blocking: biotin-IL-5 bound to CHOK1 IL-5Ra/CSF2RB cells, Ab 0.0004 nM.
Experiment [12] has the same target. The experiment is described as follows: FACS blocking: biotin-IL-5 bound to CHOK1 IL-5Ra/CSF2RB cells, Ab 0.0021 nM.
The target is the same in experiment [13]. Put plainly: FACS blocking: biotin-IL-5 bound to CHOK1 IL-5Ra/CSF2RB cells, Ab 0.0107 nM.
Experiment [14] shares this target. The experiment is described as follows: FACS blocking: biotin-IL-5 bound to CHOK1 IL-5Ra/CSF2RB cells, Ab 0.0533 nM.
Experiment [15] shares this target. The experiment is described as follows: FACS blocking: biotin-IL-5 bound to CHOK1 IL-5Ra/CSF2RB cells, Ab 0.2667 nM.
Experiment [16] has the same target. Put plainly: FACS blocking: biotin-IL-5 bound to CHOK1 IL-5Ra/CSF2RB cells, Ab 1.3333 nM.
Experiment [17] has the same target. The experiment is described as follows: FACS blocking: biotin-IL-5 bound to CHOK1 IL-5Ra/CSF2RB cells, Ab 6.6667 nM.
For experiment [18] the target is unchanged. Put plainly: FACS blocking: biotin-IL-5 bound to CHOK1 IL-5Ra/CSF2RB cells, Ab 33.3333 nM.
In experiment [19] the target is recombinant human IL-5 protein with His tag (human) (UniProt P05113). The experiment is described as follows: ELISA, biotin-human IL-5 on streptavidin; antibody 0.0002 nM.
The target is the same in experiment [20]. The experiment is described as follows: ELISA, biotin-human IL-5 on streptavidin; antibody 0.0009 nM.
Experiment [21] shares this target. The experiment is described as follows: ELISA, biotin-human IL-5 on streptavidin; antibody 0.0043 nM.
For experiment [22] the target is unchanged. Put plainly: ELISA, biotin-human IL-5 on streptavidin; antibody 0.0213 nM.
Experiment [23] has the same target. Put plainly: ELISA, biotin-human IL-5 on streptavidin; antibody 0.1067 nM.
For experiment [24] the target is unchanged. The experiment is described as follows: ELISA, biotin-human IL-5 on streptavidin; antibody 0.5333 nM.
For experiment [25] the target is unchanged. Put plainly: ELISA, biotin-human IL-5 on streptavidin; antibody 2.6667 nM.
Experiment [26] shares this target. Put plainly: ELISA, biotin-human IL-5 on streptavidin; antibody 13.3333 nM.
In experiment [27] the target is recombinant human IL-5 protein (human) (UniProt P05113). The experiment is described as follows: FACS, biotin-IL-5 bound to CHOK1 hIL-5Ra/CSF2RB cells with Ab 0.0004 nM.
Experiment [28] shares this target. The experiment is described as follows: FACS, biotin-IL-5 bound to CHOK1 hIL-5Ra/CSF2RB cells with Ab 0.0021 nM. (In flow cytometry, cells or beads pass a laser one at a time.)
Experiment [29] has the same target. The experiment is described as follows: FACS, biotin-IL-5 bound to CHOK1 hIL-5Ra/CSF2RB cells with Ab 0.0107 nM.
Experiment [30] has the same target. The experiment is described as follows: FACS, biotin-IL-5 bound to CHOK1 hIL-5Ra/CSF2RB cells with Ab 0.0533 nM.
Experiment [31] has the same target. Put plainly: FACS, biotin-IL-5 bound to CHOK1 hIL-5Ra/CSF2RB cells with Ab 0.2667 nM.
Experiment [32] has the same target. The experiment is described as follows: FACS, biotin-IL-5 bound to CHOK1 hIL-5Ra/CSF2RB cells with Ab 1.3333 nM.
Experiment [33] shares this target. Put plainly: FACS, biotin-IL-5 bound to CHOK1 hIL-5Ra/CSF2RB cells with Ab 6.6667 nM.
For experiment [34] the target is unchanged. Put plainly: FACS, biotin-IL-5 bound to CHOK1 hIL-5Ra/CSF2RB cells with Ab 33.3333 nM.

As for Mepolizumab (antibody), the TF1 (IC50), TF1 proliferation induced by IL-5 in [1] amounted to 10 pM.

For the substance hIgG control (human IgG) (antibody), in [2], the RLU, CTLL-2 proliferation with IL-5, Ab 0.000170667 nM is 57400 RLU and 51000 RLU; the RLU, CTLL-2 proliferation with IL-5, Ab 0.000853333 nM is 58600 RLU and 53800 RLU; the RLU, CTLL-2 proliferation with IL-5, Ab 0.004266667 nM is 57900 RLU and 48200 RLU; the RLU, CTLL-2 proliferation with IL-5, Ab 0.02133333 nM is 59800 RLU and 55900 RLU. Further, in [2], the RLU, CTLL-2 proliferation with IL-5, Ab 0.1066667 nM is 58200 RLU and 53500 RLU; the RLU, CTLL-2 proliferation with IL-5, Ab 0.5333334 nM is 56200 RLU and 50500 RLU; the RLU, CTLL-2 proliferation with IL-5, Ab 2.666667 nM was 51200 RLU and 46200 RLU; the RLU, CTLL-2 proliferation with IL-5, Ab 13.33333 nM was 45800 RLU and 46300 RLU. For the same substance, in experiment [2], the RLU, CTLL-2 proliferation with IL-5, Ab 66.66666 nM is 43200 RLU and 34400 RLU; the RLU, CTLL-2 proliferation with IL-5, Ab 3.41333E-05 nM is 58600 RLU and 55000 RLU; the RLU, TF-1 proliferation with IL-5, Ab 0.00001 nM is 113000 RLU and 118000 RLU; the RLU, TF-1 proliferation with IL-5, Ab 0.00003 nM was 112000 RLU and 116000 RLU. Moreover, in [2], the RLU, TF-1 proliferation with IL-5, Ab 0.00017 nM is 112000 RLU and 121000 RLU; the RLU, TF-1 proliferation with IL-5, Ab 0.00085 nM is 115000 RLU and 117000 RLU; the RLU, TF-1 proliferation with IL-5, Ab 0.00427 nM was 116000 RLU and 127000 RLU; the RLU, TF-1 proliferation with IL-5, Ab 0.02133 nM was 108000 RLU and 131000 RLU. In [2], the RLU, TF-1 proliferation with IL-5, Ab 0.10667 nM is 108000 RLU and 114000 RLU; the RLU, TF-1 proliferation with IL-5, Ab 0.53333 nM is 103000 RLU and 106000 RLU; the RLU, TF-1 proliferation with IL-5, Ab 2.66667 nM is 101000 RLU and 106000 RLU; the RLU, TF-1 proliferation with IL-5, Ab 13.33333 nM was 101000 RLU and 102000 RLU. Besides, in [3], the OD450 nm was 0.082 OD450 nm and 0.08 OD450 nm. Also, in experiment [4], the OD450 nm was 0.08 OD450 nm and 0.078 OD450 nm. Besides, in experiment [5], the OD450 nm was 0.074 OD450 nm and 0.077 OD450 nm. Besides, the OD450 nm in experiment [6] was 0.079 OD450 nm and 0.076 OD450 nm. Also, the OD450 nm in experiment [7] came out at 0.078 OD450 nm. In addition, in experiment [8], the OD450 nm was 0.079 OD450 nm and 0.078 OD450 nm. In addition, the OD450 nm in [9] was 0.09 OD450 nm and 0.088 OD450 nm. In addition, the OD450 nm in experiment [10] was 0.172 OD450 nm and 0.07 OD450 nm. Also, the Fluorescence intensity in experiment [11] amounted to 88 MFI. The Fluorescence intensity in experiment [12] was 83 MFI. In addition, the Fluorescence intensity in experiment [13] is 85 MFI. For the same substance, the Fluorescence intensity in experiment [14] is 86 MFI. Besides, the Fluorescence intensity in experiment [15] is 88 MFI. Further, in [16], the Fluorescence intensity was determined as 84 MFI. For the same substance, in [17], the Fluorescence intensity stood at 83 MFI. For the same substance, in experiment [18], the Fluorescence intensity was found to be 84 MFI.

Take mIgG control (antibody): the OD450 nm was 0.076 and 0.075 in experiment [19]; 0.075 in [20]; 0.078 and 0.072 in experiment [21]; 0.074 and 0.079 in [22]; 0.08 and 0.079 in experiment [23]; 0.08 and 0.077 in experiment [24]. The OD450 nm was 0.079 in experiment [25]; 0.108 and 0.115 in experiment [26].

As to mIgG control (mouse IgG) (antibody), in experiment [2], the RLU, CTLL-2 cell proliferation stimulated by IL-5, Ab conc. 0.000170667 nM is 57400 RLU and 51000 RLU; the RLU, CTLL-2 cell proliferation stimulated by IL-5, Ab conc. 0.000853333 nM is 58600 RLU and 53800 RLU; the RLU, CTLL-2 cell proliferation stimulated by IL-5, Ab conc. 0.004266667 nM is 57900 RLU and 48200 RLU; the RLU, CTLL-2 cell proliferation stimulated by IL-5, Ab conc. 0.02133333 nM is 59800 RLU and 55900 RLU. In experiment [2], the RLU, CTLL-2 cell proliferation stimulated by IL-5, Ab conc. 0.1066667 nM was 58200 RLU and 53500 RLU; the RLU, CTLL-2 cell proliferation stimulated by IL-5, Ab conc. 0.5333334 nM is 56200 RLU and 50500 RLU; the RLU, CTLL-2 cell proliferation stimulated by IL-5, Ab conc. 2.666667 nM was 51200 RLU and 46200 RLU; the RLU, CTLL-2 cell proliferation stimulated by IL-5, Ab conc. 13.33333 nM is 45800 RLU and 46300 RLU. For the same substance, in experiment [2], the RLU, CTLL-2 cell proliferation stimulated by IL-5, Ab conc. 66.66666 nM is 43200 RLU and 34400 RLU; the RLU, CTLL-2 cell proliferation stimulated by IL-5, Ab conc. 3.41333E-05 nM is 58600 RLU and 55000 RLU; the RLU, TF-1 cell proliferation stimulated by IL-5, Ab conc. 0.00001 nM is 113000 RLU and 118000 RLU; the RLU, TF-1 cell proliferation stimulated by IL-5, Ab conc. 0.00003 nM was 112000 RLU and 116000 RLU. Also, in experiment [2], the RLU, TF-1 cell proliferation stimulated by IL-5, Ab conc. 0.00017 nM is 112000 RLU and 121000 RLU; the RLU, TF-1 cell proliferation stimulated by IL-5, Ab conc. 0.00085 nM is 115000 RLU and 117000 RLU; the RLU, TF-1 cell proliferation stimulated by IL-5, Ab conc. 0.00427 nM was 116000 RLU and 127000 RLU; the RLU, TF-1 cell proliferation stimulated by IL-5, Ab conc. 0.02133 nM is 108000 RLU and 131000 RLU. In experiment [2], the RLU, TF-1 cell proliferation stimulated by IL-5, Ab conc. 0.10667 nM was 108000 RLU and 114000 RLU; the RLU, TF-1 cell proliferation stimulated by IL-5, Ab conc. 0.53333 nM is 103000 RLU and 106000 RLU; the RLU, TF-1 cell proliferation stimulated by IL-5, Ab conc. 2.66667 nM is 101000 RLU and 106000 RLU; the RLU, TF-1 cell proliferation stimulated by IL-5, Ab conc. 13.33333 nM is 101000 RLU and 102000 RLU. Besides, the Fluorescence intensity in [27] was found to be 86. The Fluorescence intensity in experiment [28] amounted to 81. The Fluorescence intensity in [29] was 83. Further, the Fluorescence intensity in experiment [30] came out at 83. For the same substance, the Fluorescence intensity in [31] was found to be 84. The Fluorescence intensity in experiment [32] was found to be 83. For the same substance, the Fluorescence intensity in experiment [33] is 85. In experiment [34], the Fluorescence intensity came to 80.
